Results as given in article PMC11482926 (bioRxiv, 2024).

Experiments:
NEDD8 = NEDD8 (UniProt Q15843 1-76); assay: NMR titration
ubiquitin = ubiquitin (UniProt P0CG48 1-76); assay: NMR titration

**Q.** For AAEDQVPCEKCGSLVPVWDMPEHMDYHFALELQKS (domain or fragment) [UBZ domain of Pol η (amino acids 628–662)], which Kd (NEDD8) is on record?
**A.** 671 ± 153 µM

**Q.** What about the Kd (ubiquitin) of the same binder?
**A.** 159 ± 9.5 µM
